The record followed here is patent US20260035431A1 (CAVALRY BIOSCIENCES, published 2026).

Experiment in all cases: cell-based or functional assay
One assay concerns the target T1, IGFBP2 (UniProt P18065 37-325, limits assumed).
T1 sequence (looked up): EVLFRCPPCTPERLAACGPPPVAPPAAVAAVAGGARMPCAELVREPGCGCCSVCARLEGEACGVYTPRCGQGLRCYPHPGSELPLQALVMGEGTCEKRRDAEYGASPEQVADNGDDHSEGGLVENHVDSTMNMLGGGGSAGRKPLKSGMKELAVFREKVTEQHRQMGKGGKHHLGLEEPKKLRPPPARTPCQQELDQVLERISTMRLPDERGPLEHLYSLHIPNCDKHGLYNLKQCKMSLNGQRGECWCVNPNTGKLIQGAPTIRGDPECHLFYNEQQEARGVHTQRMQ

The target in a further assay is IGFBP3 (UniProt P17936 28-291).
For assay [1], the target named is T2, IGF1 receptor (IGF1R) on DU145 cells or immortalized human meibomian gland epithelial cells (human, UniProt P08069 31-1367).
The target of assay [2] is T2, IGF1 receptor (IGF1R) on DU145 cells or …. The source holds these as a separate data set.

Changes are numbered by the printed parent chain. In names and notes the source's numbering stands.

T2 sequence (P08069 31-1367): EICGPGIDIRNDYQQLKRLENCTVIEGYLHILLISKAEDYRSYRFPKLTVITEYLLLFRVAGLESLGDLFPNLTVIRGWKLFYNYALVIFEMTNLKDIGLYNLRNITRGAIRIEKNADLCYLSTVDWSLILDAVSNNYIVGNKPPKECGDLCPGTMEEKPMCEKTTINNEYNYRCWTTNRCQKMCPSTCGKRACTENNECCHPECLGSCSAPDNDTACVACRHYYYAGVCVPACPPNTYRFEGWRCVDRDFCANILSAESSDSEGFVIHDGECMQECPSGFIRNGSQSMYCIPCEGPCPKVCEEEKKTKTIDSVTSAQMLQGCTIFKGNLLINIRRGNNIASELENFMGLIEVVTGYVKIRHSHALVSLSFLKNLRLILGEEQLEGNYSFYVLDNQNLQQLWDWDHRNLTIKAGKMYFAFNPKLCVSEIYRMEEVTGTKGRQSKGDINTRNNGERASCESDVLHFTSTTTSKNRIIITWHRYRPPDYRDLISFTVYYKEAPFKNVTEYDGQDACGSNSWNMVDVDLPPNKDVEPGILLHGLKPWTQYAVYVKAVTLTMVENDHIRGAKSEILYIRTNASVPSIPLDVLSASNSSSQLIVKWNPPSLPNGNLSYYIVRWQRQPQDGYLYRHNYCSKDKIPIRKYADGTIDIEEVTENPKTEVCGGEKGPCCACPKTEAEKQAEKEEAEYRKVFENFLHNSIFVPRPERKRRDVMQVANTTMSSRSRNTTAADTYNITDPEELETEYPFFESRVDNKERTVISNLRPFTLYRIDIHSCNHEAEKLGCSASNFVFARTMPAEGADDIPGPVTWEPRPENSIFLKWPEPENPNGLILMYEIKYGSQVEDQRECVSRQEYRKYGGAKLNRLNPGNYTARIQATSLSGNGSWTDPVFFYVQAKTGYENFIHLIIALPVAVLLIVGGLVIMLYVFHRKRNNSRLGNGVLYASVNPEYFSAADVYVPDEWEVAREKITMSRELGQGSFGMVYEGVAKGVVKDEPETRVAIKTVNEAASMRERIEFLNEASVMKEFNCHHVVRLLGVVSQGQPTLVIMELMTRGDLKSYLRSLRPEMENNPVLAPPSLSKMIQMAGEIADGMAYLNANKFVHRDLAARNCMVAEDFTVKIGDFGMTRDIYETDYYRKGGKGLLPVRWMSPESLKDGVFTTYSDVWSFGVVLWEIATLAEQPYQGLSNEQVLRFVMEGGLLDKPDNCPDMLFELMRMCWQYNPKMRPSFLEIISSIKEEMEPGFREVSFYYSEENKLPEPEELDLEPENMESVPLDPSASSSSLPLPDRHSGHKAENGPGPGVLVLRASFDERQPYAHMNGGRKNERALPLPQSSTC
Sequence of IGFBP3 (P17936 28-291 limits assumed): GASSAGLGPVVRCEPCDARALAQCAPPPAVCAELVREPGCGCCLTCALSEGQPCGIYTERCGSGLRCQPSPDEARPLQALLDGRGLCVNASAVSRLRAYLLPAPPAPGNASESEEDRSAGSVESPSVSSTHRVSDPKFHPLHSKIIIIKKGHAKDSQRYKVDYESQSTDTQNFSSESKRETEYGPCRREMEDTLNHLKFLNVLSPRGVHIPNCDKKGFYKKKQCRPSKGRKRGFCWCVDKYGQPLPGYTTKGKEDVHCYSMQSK

B1: E3R-F49L-D12A (ligand)
chain: GPRTLCGAELVAALQFVCGDRGFYFNKPTGYGSSSRRAPQTGIVDECCLRSCDLRRLEMYCAPLKPAKSA
On to B1, for which, in the assay with IGFBP2, the “% Activity compared to no IGFBP, 4x BP2” value amounted to 357%. The “% Activity compared to no IGFBP, 4x BP3” value in the assay with IGFBP3 was 342%. Further, in assay [1], the “EC50 (nM), P-AKT in DU145 cells” value amounted to 17.7 nM.

B2: E3R-F49L-L54A (ligand)
chain: B1 chain with A12D, L54A
B2: the “% Activity compared to no IGFBP, 4x BP2” value in the assay with IGFBP2 amounted to 175%. The “% Activity compared to no IGFBP, 4x BP3” value with IGFBP3 was determined as 239%. Besides, in assay [1], the “EC50 (nM), P-AKT in DU145 cells” value is 11.4 nM.

B3: E3R-F49L-D12A-L54A (ligand)
chain: B1 chain with L54A
As for B3, the “% Activity compared to no IGFBP, 4x BP2” value with IGFBP2 came out at 456%. For the same molecule, the “% Activity compared to no IGFBP, 4x BP3” value with IGFBP3 amounted to 344%. Besides, the “EC50 (nM), P-AKT in DU145 cells” value in assay [1] is 68.1 nM.

B4: IGF-1 Des1-3 (SEQ ID NO: 8) as tested in Example 1 (ligand)
chain: MRAAAPAVAATLCGAELVDALQFVCGDRGFYFNKPTGYGSSSRRAPQTGIVDECCFRSCDLRRLEMYCAPLKPAKSA
In the case of B4, the “EC50, AKT S473 phosphorylation in DU145 cells” value in assay [2] amounted to 2.3 nM.

B5: IGF-1 Des1-3 R37X (ligand)
chain: TLCGAELVDALQFVCGDRGFYFNKPTGYGSSSRAPQTGIVDECCFRSCDLRRLEMYCAPLKPAKSA
As for B5, the “EC50, AKT S473 phosphorylation in DU145 cells” value in assay [2] came to 4.1 nM.
